Laboratory results taken from patent US20130224191A1, “NOTUM PROTEIN MODULATORS AND METHODS OF USE” (priority 2010, published 2013).

How the values were obtained:
hNotum-Fc = molecular target: T1, hNotum-Fc (Homo sapiens, UniProt Q6P988); experiment: Triton X114 partition assay, blocking of hNotum-Fc; assay type: biochemical; settings: hNotum-Fc preincubated with antibody
T1 construct: IL-2 signal peptide (N); made in house; host or cells: CHO-S
Text: If Notum directly acts upon Wnt3A to delipidate the protein, this cleavage should result in a change in the hydrophobicity of the protein, which can be measured by a change in its partitioning behavior between aqueous and detergent phases in a Triton X114 partition assay (Bordier, 1981, PMID: 6257680): lipidated Wnt3A will be found in the […], whereas delipidated Wnt3A should show up in the […] (Willert et al., 2003, PMID: 12717451). […] An equal volume of 4.5% Triton X114 was added to the mixture, the mixture incubated on ice for 5 minutes, then at 37° C. for five minutes, before separating the phases using centrifugation at 2000×g for five minutes at room temperature. Following separation each sample was adjusted to normalize the ionic strength and Triton X114 content before analyzing the aliquots by PAGE electrophoresis. After running the gel the protein bands were transferred to a membrane for immunoblotting using an anti-rhWnt3A antibody (Cell Signaling Technology). Bands were visualized using SuperSignal West Pico Chemiluminescent substrate (Thermo Fisher Scientific).
Lane 1 is a positive molecular weight marker for rhWnt3A while the presence or absence of reagents in each aliquot is noted above the respective lane (where a is the aqueous fraction and t is Triton X-114 fraction, and the sliding bar indicates the concentration of Notum modulator). […]

[1] = molecular target: T2, mouse Notum (construct not specified at the place of use) (mouse, UniProt Q8R116 20-503, limits assumed); experiment: ELISA, Notum coated directly on plate
T2 construct: Purified antigen from transient transfection of mouse Notum cDNA; also called murine Notum
T2 sequence (looked up): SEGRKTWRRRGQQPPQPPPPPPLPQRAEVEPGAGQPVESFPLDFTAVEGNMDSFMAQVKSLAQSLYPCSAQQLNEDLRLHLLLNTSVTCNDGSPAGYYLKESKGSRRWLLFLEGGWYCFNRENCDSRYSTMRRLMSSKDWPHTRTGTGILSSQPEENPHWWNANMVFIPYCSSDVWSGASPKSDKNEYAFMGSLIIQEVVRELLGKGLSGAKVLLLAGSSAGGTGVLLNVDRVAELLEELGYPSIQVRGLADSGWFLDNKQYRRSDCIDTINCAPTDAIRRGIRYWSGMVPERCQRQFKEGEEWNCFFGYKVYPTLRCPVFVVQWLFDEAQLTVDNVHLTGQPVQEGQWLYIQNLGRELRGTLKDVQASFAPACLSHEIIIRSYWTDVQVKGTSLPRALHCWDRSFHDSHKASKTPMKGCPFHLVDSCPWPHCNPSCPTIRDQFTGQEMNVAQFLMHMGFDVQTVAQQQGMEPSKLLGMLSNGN

hNotum = molecular target: T3, hNotum (Homo sapiens, UniProt Q6P988); experiment: Inhibition of hNotum esterase activity; assay type: biochemical; settings: preincubation with hNotum
T3 construct: 8x-His; Strep-tag II; IgK signal peptide/leader of the pSEC-CAG vector (N); made in house; host or cells: HEK293T (adherent) / suspension 293 cells
T3 sequence (Q6P988 20-496): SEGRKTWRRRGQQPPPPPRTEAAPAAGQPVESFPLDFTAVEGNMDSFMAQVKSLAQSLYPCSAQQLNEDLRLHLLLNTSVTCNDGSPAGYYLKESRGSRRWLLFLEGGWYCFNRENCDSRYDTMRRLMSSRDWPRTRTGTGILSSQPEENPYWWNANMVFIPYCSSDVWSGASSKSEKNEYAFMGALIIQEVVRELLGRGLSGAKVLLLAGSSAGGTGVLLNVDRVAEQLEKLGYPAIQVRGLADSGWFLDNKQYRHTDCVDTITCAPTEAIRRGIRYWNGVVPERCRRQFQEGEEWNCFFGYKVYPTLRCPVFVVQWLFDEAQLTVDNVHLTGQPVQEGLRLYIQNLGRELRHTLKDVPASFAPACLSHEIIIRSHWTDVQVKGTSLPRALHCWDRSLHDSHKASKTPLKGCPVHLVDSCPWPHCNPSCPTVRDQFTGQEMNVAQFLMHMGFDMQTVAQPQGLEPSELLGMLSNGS
Experimental: Briefly, PNPA or PNPB were dissolved/diluted in isopropanol to final concentrations of 10 mM. These substrate solutions were diluted 1:10 into assay buffer (0.1% gum arabic, 2.3 mg/mL sodium dexoycholate, 1×PBS) and incubated with defined amounts of hNotum enzyme, and the enzymatic release of the chromophore p-nitrophenol monitored by absorbance measurements at 405 nm.
The results presented immediately above indicate that the measured esterase activity may be used to provide an assay that allows for the further characterization of the disclosed Notum modulators. […] As may be seen in FIG. 18A an increase in hNotum levels increases measured enzymatic activity even, to some extent, in the case where the SC2.D2.2 antibody is present. Conversely, FIG. 18B provides a dose response curve of measured enzymatic activity where the amount of hNotum is fixed at 1 μg/mL and the concentration of SC2.D2.2 is varied. […] In contrast a control antibody (MOPC) has no effect on the esterase activity of Notum (data not shown).

[2] = molecular target: T4, Notum being secreted from the 293-Notum cells (Homo sapiens, UniProt Q6P988); experiment: Co-culture Wnt3A assay, effector cells with 293.TCF reporter cells; assay type: cell-based; settings: antibody 10 μg/mL
T4 construct: expressed in transfected cells; host or cells: 293T (293.Notum)
T4 sequence (Q6P988 20-496): T3 sequence (Q6P988 20-496)
Experimental: In order to more closely model the behavior of Notum producing cells in vivo, co-culture experiments were performed in which effector cells, either parental 293T cells (293.null) or 293T cells expressing soluble Notum (i.e., 293.Notum cells), were mixed in varying ratios with reporter 293.TCF cells. Notum activity or inhibition in the presence of antibodies was then determined from these cell mixtures after treatment with Wnt3A CM. Briefly, three different ratios of effector to reporter cells were tested: 2:1, 1:[…], corresponding to 5×10^4: 2.5×10^4, 2.5×10^4: 2.5×10^4 cells, or 2.5×10^41.0×10^4 cells per well of a 96-well plate by mixing the cells in 50 μL serum free medium per well prior to plating.
For the antibody antagonism experiments, the mixture of cells was plated into wells containing 25 μL of DMEM+0.2% FBS and antibody at a final concentration of 10 μg/mL. Twenty-three hours after plating, 25 μL of Wnt3A or control L-cell CM were added to each well. Eighteen hours after addition of CM, 100 μL of One-Glo solution (ProMega Corp.) was added to each well. The contents of each well were then mixed thoroughly to lyse the cells, 100 μL of lysate transferred to black 96-well plates, and the luminescence read after 5 minutes.

T1 sequence (Q6P988 with tags, fused parts or gaps): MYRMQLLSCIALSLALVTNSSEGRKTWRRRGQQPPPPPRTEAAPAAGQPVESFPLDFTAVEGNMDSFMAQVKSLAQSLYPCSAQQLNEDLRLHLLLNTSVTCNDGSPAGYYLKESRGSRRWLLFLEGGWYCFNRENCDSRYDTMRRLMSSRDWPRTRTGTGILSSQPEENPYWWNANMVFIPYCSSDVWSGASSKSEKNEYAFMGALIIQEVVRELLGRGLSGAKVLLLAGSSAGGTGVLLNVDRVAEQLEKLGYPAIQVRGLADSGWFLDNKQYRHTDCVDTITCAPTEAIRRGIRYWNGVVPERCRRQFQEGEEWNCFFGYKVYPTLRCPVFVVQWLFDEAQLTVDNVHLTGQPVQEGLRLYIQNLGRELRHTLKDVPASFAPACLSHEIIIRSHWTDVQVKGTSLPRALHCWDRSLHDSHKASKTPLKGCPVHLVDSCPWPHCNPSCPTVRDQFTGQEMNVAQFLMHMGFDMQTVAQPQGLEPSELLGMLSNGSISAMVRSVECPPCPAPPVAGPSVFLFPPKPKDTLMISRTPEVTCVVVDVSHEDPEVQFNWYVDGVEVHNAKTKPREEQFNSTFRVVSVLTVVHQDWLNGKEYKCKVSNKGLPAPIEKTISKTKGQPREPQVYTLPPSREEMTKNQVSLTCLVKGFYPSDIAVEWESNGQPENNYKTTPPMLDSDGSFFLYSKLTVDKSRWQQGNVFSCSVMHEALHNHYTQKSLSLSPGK

B1: SC2.D2.2 (antibody, V domains shown)
VH: DVQLVESGGGLVQPGGSRKISCAASGFTFSSYGMHWVRQAPEKGLEWVAYISSSTVTTYYADTVKGRFTISRDNANNTLFLQMTSLRSEDTAMYYCSRQNWDGGYFDVWGAGTTVTVSS
VL: DIVLTQSLASLAVSLGQRATISCRASKSVSSSGYSYMHWYQQKPGQPPKLLIYLASNLESGVPARFSGSGSGTDFTLNIHPVEEEDAATYYCQHSRALPLTFGAGTKLELKR
notes: also called murine SC2.D2.2
hNotum-Fc
  blocking of Notum induced redistribution of rhWnt3A: can be blocked
[1]
  binding result: no binding
hNotum
  effect on esterase activity of hNotum: greatly reduced esterase activity
[2]; co-cultures of 293.Notum and 293.TCF cells
  Wnt3A-induced luciferase: increases the amount of Wnt3A-induced luciferase
[2]; co-cultures of 293.null and 293.TCF cells
  induction of luciferase activity by Wnt3A CM: little effect
